± gives the standard deviation of the averaged measurements.
Assays:
MCF7 = assay: percentage of EdU-negative (G0-arrested) nuclei per well, 72 h; higher = more G0 arrest; details: reference: sequence is the full UniProt precursor, the tested protein was the secreted form or ectodomain
hTERT-HMEC = assay: as above; details: reference: sequence is the full UniProt precursor, the tested protein was the secreted form or ectodomain
[1] = protein concentration 0.0217075 µM
[2] = protein concentration 0.217075 µM
[3] = protein concentration 0.00825 µM
[4] = protein concentration 0.0825 µM
[5] = protein concentration 0.0225 µM
[6] = protein concentration 0.03125 µM
[7] = protein concentration 0.3125 µM
[8] = protein concentration 0.0211429 µM
[9] = protein concentration 0.211429 µM
[10] = protein concentration 0.01025 µM
[11] = protein concentration 0.1025 µM
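Also: secreted proteins added to cultured cells, EdU pulse at the end, nuclei found by Hoechst imaging, EdU status from nuclear versus surrounding ring intensity ratio, PBS as neutral control.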

Sequence | percentage of EdU-negative (MCF7; [5]) | percentage of EdU-negative (MCF7; protein concentration 0.225 µM) | percentage of EdU-negative (hTERT-HMEC; [5]) | percentage of EdU-negative (hTERT-HMEC; protein concentration 0.225 µM) | further results
MLVDGPSERPALCFLLLAVAMSFFGSALSIDETRAHLLLKEKMMRLGGRLVLNTKEELANERLMTLKIAEMKEAMRTLIFPPSMHFFQAKHLIERSQVFNILRMMPKGAALHLHDIGIVTMDWLVRNVTYRPHCHICFTPRGIMQFRFAHPTPRPSEKCSKWILLEDYRKRVQNVTEFDDSLLRNFTLVTQHPEVIYTNQNVVWSKFETIFFTISGLIHYAPVFRDYVFRSMQEFYEDNVLYMEIRARLLPVYELSGEHHDEEWSVKTYQEVAQKFVETHPEFIGIKIIYSDHRSKDVAVIAESIRMAMGLRIKFPTVVAGFDLVGHEDTGHSLHDYKEALMIPAKDGVKLPYFFHAGETDWQGTSIDRNILDALMLNTTRIGHGFALSKHPAVRTYSWKKDIPIEVCPISNQVLKLVSDLRNHPVATLMATGHPMVISSDDPAMFGAKGLSYDFYEVFMGIGGMKADLRTLKQLAMNSIKYSTLLESEKNTFMEIWKKRWDKFIADVATK [Q9NZK5] | – | – | – | – | percentage of EdU-negative (MCF7; [1]): 24.5 ± 1.2%; percentage of EdU-negative (MCF7; [2]): 28.4 ± 1.5%; percentage of EdU-negative (hTERT-HMEC; [1]): 4.31 ± 0.15%; percentage of EdU-negative (hTERT-HMEC; [2]): 7.86 ± 0.091%
MLVGQGAGPLGPAVVTAAVVLLLSGVGPAHGSEDIVVGCGGFVKSDVEINYSLIEIKLYTKHGTLKYQTDCAPNNGYFMIPLYDKGDFILKIEPPLGWSFEPTTVELHVDGVSDICTKGGDINFVFTGFSVNGKVLSKGQPLGPAGVQVSLRNTGTEAKIQSTVTQPGGKFAFFKVLPGDYEILATHPTWALKEASTTVRVTNSNANAASPLIVAGYNVSGSVRSDGEPMKGVKFLLFSSLVTKEDVLGCNVSPVPGFQPQDESLVYLCYTVSREDGSFSFYSLPSGGYTVIPFYRGERITFDVAPSRLDFTVEHDSLKIEPVFHVMGFSVTGRVLNGPEGDGVPEAVVTLNNQIKVKTKADGSFRLENITTGTYTIHAQKEHLYFETVTIKIAPNTPQLADIIATGFSVCGQISIIRFPDTVKQMNKYKVVLSSQDKDKSLVTVETDAHGSFCFKAKPGTYKVQVMVPEAETRAGLTLKPQTFPLTVTNRPMMDVAFVQFLASVSGKVSCLDTCGDLLVTLQSLSRQGEKRSLQLSGKVNAMTFTFDNVLPGKYKISIMHEDWCWKNKSLEVEVLEDDMSAVEFRQTGYMLRCSLSHAITLEFYQDGNGRENVGIYNLSKGVNRFCLSKPGVYKVTPRSCHRFEQAFYTYDTSSPSILTLTAIRHHVLGTITTDKMMDVTVTIKSSIDSEPALVLGPLKSVQELRREQQLAEIEARRQEREKNGNEEGEERMTKPPVQEMVDELQGPFSYDFSYWARSGEKITVTPSSKELLFYPPSMEAVVSGESCPGKLIEIHGKAGLFLEGQIHPELEGVEIVISEKGASSPLITVFTDDKGAYSVGPLHSDLEYTVTSQKEGYVLTAVEGTIGDFKAYALAGVSFEIKAEDDQPLPGVLLSLSGGLFRSNLLTQDNGILTFSNLSPGQYYFKPMMKEFRFEPSSQMIEVQEGQNLKITITGYRTAYSCYGTVSSLNGEPEQGVAMEAVGQNDCSIYGEDTVTDEEGKFRLRGLLPGCVYHVQLKAEGNDHIERALPHHRVIEVGNNDIDDVNIIVFRQINQFDLSGNVITSSEYLPTLWVKLYKSENLDNPIQTVSLGQSLFFHFPPLLRDGENYVVLLDSTLPRSQYDYILPQVSFTAVGYHKHITLIFNPTRKLPEQDIAQGSYIALPLTLLVLLAGYNHDKLIPLLLQLTSRLQGVRALGQAASDNSGPEDAKRQAKKQKTRRT | – | – | – | – | percentage of EdU-negative (MCF7; [3]): 22.7 ± 1.3%; percentage of EdU-negative (MCF7; [4]): 26.29 ± 0.074%; percentage of EdU-negative (hTERT-HMEC; [3]): 5.23 ± 0.14%; percentage of EdU-negative (hTERT-HMEC; [4]): 7.14 ± 1.1%
MLVRRGARAGPRMPRGWTALCLLSLLPSGFMSLDNNGTATPELPTQGTFSNVSTNVSYQETTTPSTLGSTSLHPVSQHGNEATTNITETTVKFTSTSVITSVYGNTNSSVQSQTSVISTVFTTPANVSTPETTLKPSLSPGNVSDLSTTSTSLATSPTKPYTSSSPILSDIKAEIKCSGIREVKLTQGICLEQNKTSSCAEFKKDRGEGLARVLCGEEQADADAGAQVCSLLLAQSEVRPQCLLLVLANRTEISSKLQLMKKHQSDLKKLGILDFTEQDVASHQSYSQKTLIALVTSGALLAVLGITGYFLMNRRSWSPTGERLGEDPYYTENGGGQGYSSGPGTSPEAQGKASVNRGAQENGTGQATSRNGHSARQHVVADTEL | 26.6 ± 1.4% | 27.23 ± 0.19% | 5.14 ± 0.39% | 5.89 ± 0.59% | –
MLWLFQSLLFVFCFGPGNVVSQSSLTPLMVNGILGESVTLPLEFPAGEKVNFITWLFNETSLAFIVPHETKSPEIHVTNPKQGKRLNFTQSYSLQLSNLKMEDTGSYRAQISTKTSAKLSSYTLRILRQLRNIQVTNHSQLFQNMTCELHLTCSVEDADDNVSFRWEALGNTLSSQPNLTVSWDPRISSEQDYTCIAENAVSNLSFSVSAQKLCEDVKIQYTDTKMILFMVSGICIVFGFIILLLLVLRKRRDSLSLSTQRTQGPAESARNLEYVSVSPTNNTVYASVTHSNRETEIWTPRENDTITIYSTINHSKESKPTFSRATALDNVV [Q96DU3] | 24.69 ± 0.12% | 25 ± 1.3% | 4.5 ± 0.13% | 5.94 ± 1.1% | –
MLWRQLIYWQLLALFFLPFCLCQDEYMESPQTGGLPPDCSKCCHGDYSFRGYQGPPGPPGPPGIPGNHGNNGNNGATGHEGAKGEKGDKGDLGPRGERGQHGPKGEKGYPGIPPELQIAFMASLATHFSNQNSGIIFSSVETNIGNFFDVMTGRFGAPVSGVYFFTFSMMKHEDVEEVYVYLMHNGNTVFSMYSYEMKGKSDTSSNHAVLKLAKGDEVWLRMGNGALHGDHQRFSTFAGFLLFETK [Q9BXJ4] | 24.8 ± 1.7% | 26.38 ± 0.15% | 5.75 ± 0.2% | 5.41 ± 0.19% | –
MMCGAPSATQPATAETQHIADQVRSQLEEKENKKFPVFKAVSFKSQVVAGTNYFIKVHVGDEDFVHLRVFQSLPHENKPLTLSNYQTNKAKHDELTYF | – | – | – | – | percentage of EdU-negative (MCF7; [6]): 26 ± 3.3%; percentage of EdU-negative (MCF7; [7]): 26.5 ± 2.9%; percentage of EdU-negative (hTERT-HMEC; [6]): 5.09 ± 0.59%; percentage of EdU-negative (hTERT-HMEC; [7]): 4.78 ± 0.35%
MMCPLWRLLIFLGLLALPLAPHKQPWPGLAQAHRDNKSTLARIIAQGLIKHNAESRIQNIHFGDRLNASAQVAPGLVGWLISGRKHQQQQESSINITNIQLDCGGIQISFHKEWFSANISLEFDLELRPSFDNNIVKMCAHMSIVVEFWLEKDEFGRRDLVIGKCDAEPSSVHVAILTEAIPPKMNQFLYNLKENLQKVLPHMVESQVCPLIGEILGQLDVKLLKSLIEQEAAHEPTHHETSQPSACQAGESPS [Q9BQP9] | 25.2 ± 1.2% | 26.8 ± 0.78% | 4.7 ± 0.18% | 12.1 ± 1.2% | –
MMDIYVCLKRPSWMVDNKRMRTASNFQWLLSTFILLYLMNQVNSQKKGAPHDLKCVTNNLQVWNCSWKAPSGTGRGTDYEVCIENRSRSCYQLEKTSIKIPALSHGDYEITINSLHDFGSSTSKFTLNEQNVSLIPDTPEILNLSADFSTSTLYLKWNDRGSVFPHRSNVIWEIKVLRKESMELVKLVTHNTTLNGKDTLHHWSWASDMPLECAIHFVEIRCYIDNLHFSGLEEWSDWSPVKNISWIPDSQTKVFPQDKVILVGSDITFCCVSQEKVLSALIGHTNCPLIHLDGENVAIKIRNISVSASSGTNVVFTTEDNIFGTVIFAGYPPDTPQQLNCETHDLKEIICSWNPGRVTALVGPRATSYTLVESFSGKYVRLKRAEAPTNESYQLLFQMLPNQEIYNFTLNAHNPLGRSQSTILVNITEKVYPHTPTSFKVKDINSTAVKLSWHLPGNFAKINFLCEIEIKKSNSVQEQRNVTIKGVENSSYLVALDKLNPYTLYTFRIRCSTETFWKWSKWSNKKQHLTTEASPSKGPDTWREWSSDGKNLIIYWKPLPINEANGKILSYNVSCSSDEETQSLSEIPDPQHKAEIRLDKNDYIISVVAKNSVGSSPPSKIASMEIPNDDLKIEQVVGMGKGILLTWHYDPNMTCDYVIKWCNSSRSEPCLMDWRKVPSNSTETVIESDEFRPGIRYNFFLYGCRNQGYQLLRSMIGYIEELAPIVAPNFTVEDTSADSILVKWEDIPVEELRGFLRGYLFYFGKGERDTSKMRVLESGRSDIKVKNITDISQKTLRIADLQGKTSYHLVLRAYTDGGVGPEKSMYVVTKENSVGLIIAILIPVAVAVIVGVVTSILCYRKREWIKETFYPDIPNPENCKALQFQKSVCEGSSALKTLEMNPCTPNNVEVLETRSAFPKIEDTEIISPVAERPEDRSDAEPENHVVVSYCPPIIEEEIPNPAADEAGGTAQVIYIDVQSMYQPQAKPEEEQENDPVGGAGYKPQMHLPINSTVEDIAAEEDLDKTAGYRPQANVNTWNLVSPDSPRSIDSNSEIVSFGSPCSINSRQFLIPPKDEDSPKSNGGGWSFTNFFQNKPND | – | – | – | – | percentage of EdU-negative (MCF7; [8]): 24.2 ± 2%; percentage of EdU-negative (MCF7; [9]): 26.8 ± 0.8%; percentage of EdU-negative (hTERT-HMEC; [8]): 4.99 ± 0.47%; percentage of EdU-negative (hTERT-HMEC; [9]): 7.62 ± 0.7%
MMGLFPRTTGALAIFVVVILVHGELRIETKGQYDEEEMTMQQAKRRQKREWVKFAKPCREGEDNSKRNPIAKITSDYQATQKITYRISGVGIDQPPFGIFVVDKNTGDINITAIVDREETPSFLITCRALNAQGLDVEKPLILTVKILDINDNPPVFSQQIFMGEIEENSASNSLVMILNATDADEPNHLNSKIAFKIVSQEPAGTPMFLLSRNTGEVRTLTNSLDREQASSYRLVVSGADKDGEGLSTQCECNIKVKDVNDNFPMFRDSQYSARIEENILSSELLRFQVTDLDEEYTDNWLAVYFFTSGNEGNWFEIQTDPRTNEGILKVVKALDYEQLQSVKLSIAVKNKAEFHQSVISRYRVQSTPVTIQVINVREGIAFRPASKTFTVQKGISSKKLVDYILGTYQAIDEDTNKAASNVKYVMGRNDGGYLMIDSKTAEIKFVKNMNRDSTFIVNKTITAEVLAIDEYTGKTSTGTVYVRVPDFNDNCPTAVLEKDAVCSSSPSVVVSARTLNNRYTGPYTFALEDQPVKLPAVWSITTLNATSALLRAQEQIPPGVYHISLVLTDSQNNRCEMPRSLTLEVCQCDNRGICGTSYPTTSPGTRYGRPHSGRLGPAAIGLLLLGLLLLLLAPLLLLTCDCGAGSTGGVTGGFIPVPDGSEGTIHQWGIEGAHPEDKEITNICVPPVTANGADFMESSEVCTNTYARGTAVEGTSGMEMTTKLGAATESGGAAGFATGTVSGAASGFGAATGVGICSSGQSGTMRTRHSTGGTNKDYADGAISMNFLDSYFSQKAFACAEEDDGQEANDCLLIYDNEGADATGSPVGSVGCCSFIADDLDDSFLDSLGPKFKKLAEISLGVDGEGKEVQPPSKDSGYGIESCGHPIEVQQTGFVKCQTLSGSQGASALSTSGSVQPAVSIPDPLQHGNYLVTETYSASGSLVQPSTAGFDPLLTQNVIVTERVICPISSVPGNLAGPTQLRGSHTMLCTEDPCSRLI | 27.7 ± 0.58% | 33.34 ± 0.16% | 4.88 ± 0.17% | 13.7 ± 2.7% | –
MMLHSALGLCLLLVTVSSNLAIAIKKEKRPPQTLSRGWGDDITWVQTYEEGLFYAQKSKKPLMVIHHLEDCQYSQALKKVFAQNEEIQEMAQNKFIMLNLMHETTDKNLSPDGQYVPRIMFVDPSLTVRADIAGRYSNRLYTYEPRDLPLLIENMKKALRLIQSEL [Q8TD06] | 26.1 ± 2.8% | 24.6 ± 0.5% | 5.91 ± 1.9% | 6.43 ± 1.1% | –
MMLRLLSSLLLVAVASGYGPPSSHSSSRVVHGEDAVPYSWPWQVSLQYEKSGSFYHTCGGSLIAPDWVVTAGHCISRDLTYQVVLGEYNLAVKEGPEQVIPINSEELFVHPLWNRSCVACGNDIALIKLSRSAQLGDAVQLASLPPAGDILPNKTPCYITGWGRLYTNGPLPDKLQQARLPVVDYKHCSRWNWWGSTVKKTMVCAGGYIRSGCNGDSGGPLNCPTEDGGWQVHGVTSFVSAFGCNFIWKPTVFTRVSAFIDWIEETIASH | – | – | – | – | percentage of EdU-negative (MCF7; [10]): 25.2 ± 3%; percentage of EdU-negative (MCF7; [11]): 24.7 ± 1.6%; percentage of EdU-negative (hTERT-HMEC; [10]): 5.71 ± 1.5%; percentage of EdU-negative (hTERT-HMEC; [11]): 5.66 ± 0.78%
